Laboratory results from patent publication US20090203610A1, “METHODS OF TREATING OBESITY OR DIABETES USING NT-4/5” (RINAT NEUROSCIENCE CORPORATION, priority 2004, published 2009).

Experiments:
db/db mice [1] = test: Heart and gastrocnemius muscle weight in db/db mice (Example 1); details: day 28; NT-4/5 20 mg/kg s.c., Rosiglitazone 3 mg/kg p.o.
Procedure: Test animals: 24 female 10-12 weeks old db/db mice (C57BL/Ks J Rj-db/db, Janvier, France), weighing in the target range of 40-50 g, were used in this study. These mice were housed in a temperature (19.5-24.5° C.) and relative humidity (45-65%) controlled room with a 12-hour light/dark cycle, with ad libitum access to filtered tap-water and irradiated pelleted laboratory chow (SAFE, France) throughout the study. Upon receipt at animal facilities, they were housed 4 per cage covered with filtered caps and at least a 5-day acclimation period was observed.
The mice were divided into three groups of 8 mice each (groups 1-3). Each group was treated with vehicle (PBS) subcutaneously (s.c.), 3 mg/kg Rosiglitazone orally (p.o.), or 20 mg/kg NT-4/5 subcutaneously (s.c.). From day 1 to day 5 (T1-T5) and then from day 8 to day 12 (T8-T12), the mice in groups 2 and 3 were dosed once daily for 5 consecutive days, with a volume of 10 ml/kg.
Heart weight and gastrocnemius weight were measured on day 28 for vehicle, Rosiglitazone, and NT-4/5 treated mice.

[2] = system: NONcNZO-10 polygenic obese mice; test: Pegylated NT-4/5 cysteine mutant on body weight, food intake, glucose, triglyceride in NONcNZO-10 mice (Example 6); type: in vivo
Procedure: Test animals: 30 male NONcNZO-10 polygenic obese mice at 10 weeks of age weighing in the range of 27-32 g were used in this study.
Administration of NT-4/5 and pegylated NT-4/5: The mice were divided into 4 groups of equivalent body weight distribution (7-8 mice per group). Each group received on the first day (day 1) of the study one and the only dose of either vehicle alone, 1 mg/kg of NT-4/5 or 1 mg/kg of PEG-NT4-S50C, respectively. A final group received a daily subcutaneous dose of 1 mg/kg of NT-4/5 from day 1 to day 5, then from day 7 to day 9. On day 9 after the treatment started, blood samples were collected to determine serum glucose and triglyceride levels. Body weight and food intake were monitored 5 days a week through out the entire study.

[3] = system: NONcNZO-10 polygenic obese and diabetic mice; test: Non-fasting blood glucose and HbA1c in polygenic obese and diabetic mice NONcNZO-10 (Example 3); type: in vivo; details: 2 or 10 mg/kg s.c. daily; dose dependent
Source text: Test animals: 19 male NONcNZO-10 polygenic obese and diabetic mice from Jackson Laboratory (See Leiter et al., Diabetes 53 (Suppl. 1): S4-S11, 2004) at 9 weeks of age weighing in the range of 28-35 g were used in this study.
Administration of NT-4/5: NT-4/5 was obtained from Genentech Inc.
The mice were divided into 3 groups of equivalent body weight and baseline glucose distribution (6-7 mice per group). […] Seven days before starting the treatment (day −7), blood samples were collected from the mice as described previously for the determination of baseline levels of blood glucose and triglyceride. After the treatment started, blood samples were collected weekly to determine glucose and triglyceride levels as described in previous examples. Body weight and food intake were monitored 5 days a week through out the entire study.

db/db mice [4] = test: Body weight, daily then intermittent s.c. dosing to day 29 in db/db mice (Example 2); type: in vivo
Procedure: Female db/db mice (12 weeks old) were divided into four groups and were subcutaneously injected with vehicle (PBS) or NT-4/5 at doses of 2 mg/kg, 5 mg/kg, or 10 mg/kg daily from day 0 to day 4, and then on day 8, day 11, day 15, day 18, day 22, day 25, and day 29. […] In addition, the body weights in NT-4/5 in all treated groups continued to be reduced during the treatment period.

[5] = system: NONcNZO-10 polygenic obese and diabetic mice; test: Body weight after intravenous NT-4/5 in NONcNZO-10 mice (Example 3); type: in vivo; details: i.v. 1 mg/kg
Procedure: Experiment was also performed on the same type of mice by intravenous injection of vehicle (PBS) and NT-4/5 (1 mg/kg) on day 1 and on day 5. About 5% to about 10% reduction of body weight was observed between NT-4/5 treated group and vehicle group between day 2 and day 15.

DIO mice = test: Weekly intravenous pegylated G1S NT-4/5 versus WT NT-4/5 on body weight and food intake in DIO mice (Example 8); type: in vivo
Source text: Test animals: Mice with diet induced obesity (DIO) were used in this study. 29 male C57BL/6J mice were weaned at 4 weeks of age. Immediately after weaning, they were put on 58% high fat diet (D12331i, Research Diet) through out the study. The DIO mice at 13 weeks of age weighing in the range of 28-40 g were used in this study.
Administration of NT-4/5 and pegylated NT-4/5: NT-4/5 was obtained from Genentech Inc. or produced as described in U.S. Pat. No. 6,184,360. Pegylated NT-4/5 was produced as follows: A mutation was introduced by changing the glycine 1 position of mature human NT-4/5 sequence to serine, resulting in a mutant form of NT-4/5 (NT4-G1S). NT4-G1S protein was expressed in E. coli, solubilized, extracted, purified and refolded as described above. Refolded NT4-G1S was dialyzed into 50 mM sodium phosphate buffer at pH 6.8 and treated with 1.5 molar excess sodium meta-periodate for 10 minutes to oxidize the N-terminal serine (or threonine) residue to an aldehyde. Remaining periodate was removed by dialysis against 30 mM sodium acetate at pH 4.5. The exact concentration of NT4-G1S was determined and a 2 to 4 fold molar excess of 20K-m-PEG-HZ (methoxy polyethylene glycol hydrazide) was added. The reaction was incubated at 37° C. for several days with gentle agitation. Unconjugated PEG, pegylated NT4-G1S and non-pegylated NT4-G1S were separated via ion exchange or size exclusion chromatography.
The mice were divided into 3 groups of equivalent body weight and baseline blood glucose distribution (7-8 mice per group). Each group received four weekly intravenous doses (on day 1, 8, 15 and 22) of either vehicle, 2 mg/kg of NT-4/5 or 2 mg/kg of pegylated G1S NT-4/5 respectively. Body weight and food intake were monitored 5 days per week through out the entire study.

p75NTR = target: T1, p75NTR (Homo sapiens, UniProt P08138); details: low affinity receptor (LNGFR, p75NTR); cited from earlier work
T1 sequence (P08138 29-427): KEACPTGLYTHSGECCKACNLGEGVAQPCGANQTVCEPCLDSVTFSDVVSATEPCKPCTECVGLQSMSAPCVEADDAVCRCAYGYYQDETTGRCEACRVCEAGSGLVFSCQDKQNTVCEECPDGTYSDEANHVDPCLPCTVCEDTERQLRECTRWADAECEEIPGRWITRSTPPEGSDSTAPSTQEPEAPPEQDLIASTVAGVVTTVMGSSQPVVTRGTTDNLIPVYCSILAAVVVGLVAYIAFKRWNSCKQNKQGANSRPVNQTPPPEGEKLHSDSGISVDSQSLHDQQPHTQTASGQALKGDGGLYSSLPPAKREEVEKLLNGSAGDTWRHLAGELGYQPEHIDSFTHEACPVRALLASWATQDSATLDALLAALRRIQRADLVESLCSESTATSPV

[6] = single subcutaneous injection of 1 mg/kg, day 9

## CN(CCOc1ccc(CC2SC(=O)NC2=O)cc1)c1ccccn1 (stereo not shown) [Rosiglitazone, reference compound]
db/db mice [1]
  Gastrocnemius weight: 0.074 g
  Heart weight: 0.114 g

B1: NT-4/5: mature human neurotrophin-4/5 (SEQ ID NO:1), obtained from Genentech or produced in E. coli (protein, listed as Homo sapiens)
chain: GVSETAPASRRGELAVCDAVSGWVTDRRTAVDLRGREVEVLGEVPAAGGSPLRQYFFETRCKADNAEEGGPGAGGGGCRGVDRRHWVSECKAKQSYVRALTADAQGRVGWRWIRIDTACVCTLLSRTGRA
[2]; daily dose of 1 mg/kg, on average, P<0.01
  triglyderide level reduction: about 50%
[2]; daily dose of 1 mg/kg, on average, P<0.05
  blood glucose level reduction: about 50%
[2]; daily injection of 1 mg/kg
  Daily food intake: without affecting daily food intake
  body weight: significantly reduced body weight
[2]; [6]
  blood glucose level: did not significantly reduce
  triglyceride level: did not significantly reduce
[3]
  long term glycemic control, HbA1c levels: improved long term glycemic control
  non-fasting blood glucose level: reduced non-fasting blood glucose level
db/db mice [4]; 2, 5 or 10 mg/kg s.c. daily day 0-4, then days 8, 11, 15, 18, 22, 25, 29
  body weight: reduced body weight in a dose dependent manner
db/db mice [4]; day 31, 5 mg/kg and 10 mg/kg groups
  body weight reduction: about 20%
[5]
  time body weight reduction maintained after 2 staggered intravenous doses: up to 10 days
DIO mice; 2 mg/kg i.v. on day 1, 8, 15, 22, Bonferroni posttests
  body weight, pairwise difference with the vehicle control group: significant pairwise differences
DIO mice; 2 mg/kg i.v. weekly
  body weight with long term weekly dosing: more effective in maintaining lower body weight
p75NTR
  Kd: 2 nM
